We go through 2 proteins from article PMC5300068 (2017).

This series deals with the molecule itself. Description: AUC.

B1: MASP-2 (protein)
chain: TPLGPKWPEPVFGRLASPGFPGEYANDQERRWTLTAPPGYRLRLYFTHFDLELSHLCEYDFVKLSSGAKVLATLCGQESTDTERAPGKDTFYSLGSSLDITFRSDYSNEKPFTGFEAFYAAEDIDECQVAPGEAPTCDHHCHNHLGGFYCSCRAGYVLHRNKRTCSALCSGQVFTQRSGELSSPEYPRPYPKLSSCTYSISLEEGFSVILDFVESFDVETHPETLCPYDFLKIQTDREEHGPFCGKTLPHRIETKSNTVTITFVTDESGDHTGWKIHYTSTAQPCPYPMAPPNGHVSPVQAKYILKDSFSIFCETGYELLQGHLPLKSFTAVCQKDGSWDRPMPACSIVDCGPPDDLPSGRVEYITGPGVTTYKAVIQYSCEETFYTMKVNDGKYVCEADGFWTSSKGEKSLPVCEPVCGLSARTTGGRIYGGQKAKPGDFPWQVLILGGTTAAGALLYDNWVLTAAHAVYEQKHDASALDIRMGTLKRLSPHYTQAWSEAVFIHEGYTHDAGFDNDIALIKLNNKVVINSNITPICLPRKEAESFMRTDDIGTASGWGLTQRGFLARNLMYVDIPIVDHQKCTAAYEKPPYPRGSVTANMLCAGLESGGKDSCRGDSGGALVFLDSETERWFVGGIVSWGSMNCGEAGQYGVYTKVINYIPWIENIISDF
As usually defined, the Kd is the constant that tells how readily two partners part at equilibrium. A high value points to weaker binding. As for B1, the Kd is < 10 nM.

B2: MASP-1 (protein)
chain: HTVELNNMFGQIQSPGYPDSYPSDSEVTWNITVPDGFRIKLYFMHFNLESSYLCEYDYVKVETEDQVLATFCGRETTDTEQTPGQEVVLSPGSFMSITFRSDFSNEERFTGFDAHYMAVDVDECKEREDEELSCDHYCHNYIGGYYCSCRFGYILHTDNRTCRVECSDNLFTQRTGVITSPDFPNPYPKSSECLYTIELEEGFMVNLQFEDIFDIEDHPEVPCPYDYIKIKVGPKVLGPFCGEKAPEPISTQSHSVLILFHSDNSGENRGWRLSYRAAGNECPELQPPVHGKIEPSQAKYFFKDQVLVSCDTGYKVLKDNVEMDTFQIECLKDGTWSNKIPTCKIVDCRAPGELEHGLITFSTRNNLTTYKSEIKYSCQEPYYKMLNNNTGIYTCSAQGVWMNKVLGRSLPTCLPVCGLPKFSRKLMARIFNGRPAQKGTTPWIAMLSHLNGQPFCGGSLLGSSWIVTAAHCLHQSLDPEDPTLRDSDLLSPSDFKIILGKHWRLRSDENEQHLGVKHTTLHPQYDPNTFENDVALVELLESPVLNAFVMPICLPEGPQQEGAMVIVSGWGKQFLQRFPETLMEIEIPIVDHSTCQKAYAPLKKKVTRDMICAGEKEGGKDACAGDSGGPMVTLNRERGQWYLVGTVSWGDDCGKKDRYGVYSYIHHNKDWIQRVTGVRN
Take B2: the Kd was < 10 nM.
